Measurements from US20070192880.

Experiments:
SID-CDC = molecular target: T1, SID-CDC (UniProt P03372); experiment: cell_activity
T1 sequence: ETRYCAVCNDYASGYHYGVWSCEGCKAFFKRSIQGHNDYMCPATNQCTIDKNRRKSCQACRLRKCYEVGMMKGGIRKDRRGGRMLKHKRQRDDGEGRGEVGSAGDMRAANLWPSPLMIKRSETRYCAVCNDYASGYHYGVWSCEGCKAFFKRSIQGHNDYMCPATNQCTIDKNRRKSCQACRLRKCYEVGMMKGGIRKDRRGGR

SID-CDC-SID = experiment: cell_activity; conditions: COS-1; given as decreased about 60% of that observed with parent vector
CDC-SID = molecular target: T2, CDC-SID (UniProt P03372); experiment: cell_activity
T2 sequence: T1 sequence

KRAB-CDC = molecular target: T3, KRAB-CDC (UniProt P03372); experiment: cell_activity; conditions: COS-1 and CHO; no effect without ERE
T3 sequence: T1 sequence

KRAB-CDC-SID = molecular target: T4, KRAB-CDC-SID (UniProt P03372); experiment: cell_activity; conditions: COS-1
T4 sequence: T1 sequence

CDC-KRAB = molecular target: T5, CDC-KRAB (UniProt P03372); experiment: cell_activity; conditions: COS-1 and CHO; no effect without ERE
T5 sequence: T1 sequence

CDC (expressed in cells) = molecular target: T6, CDC (expressed in cells) (UniProt P03372); experiment: cell_activity; conditions: COS-1; little effect in CHO
T6 sequence: T1 sequence

SID-CDC-KRAB = molecular target: T7, SID-CDC-KRAB (UniProt P03372); experiment: cell_activity; conditions: COS-1
T7 sequence: T1 sequence

ERα (Homo sapiens) = molecular target: T8, ERα (Homo sapiens) (UniProt P03372); experiment: EMSA; conditions: EMSA competition
T8 sequence: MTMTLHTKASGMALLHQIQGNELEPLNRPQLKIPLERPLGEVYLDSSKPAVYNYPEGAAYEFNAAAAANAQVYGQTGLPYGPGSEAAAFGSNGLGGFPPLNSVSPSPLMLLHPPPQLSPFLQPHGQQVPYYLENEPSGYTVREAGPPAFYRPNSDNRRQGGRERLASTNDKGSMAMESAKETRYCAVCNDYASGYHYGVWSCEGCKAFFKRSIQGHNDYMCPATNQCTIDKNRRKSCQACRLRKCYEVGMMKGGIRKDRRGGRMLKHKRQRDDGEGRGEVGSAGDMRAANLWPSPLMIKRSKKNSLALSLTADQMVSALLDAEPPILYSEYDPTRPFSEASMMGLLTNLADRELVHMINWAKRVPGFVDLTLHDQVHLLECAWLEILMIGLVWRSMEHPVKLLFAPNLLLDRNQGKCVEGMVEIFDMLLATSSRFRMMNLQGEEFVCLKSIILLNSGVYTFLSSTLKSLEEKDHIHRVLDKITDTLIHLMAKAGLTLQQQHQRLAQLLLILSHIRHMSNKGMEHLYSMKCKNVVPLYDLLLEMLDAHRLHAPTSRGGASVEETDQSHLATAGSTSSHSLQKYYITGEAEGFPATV

[1] = molecular target: T9, CDC ERE binding module (ERα C domain - D hinge - C domain fusion) (UniProt P03372); experiment: EMSA; conditions: apparent Kd from EMSA competition
T9 sequence: T1 sequence

ERα (expressed in cells) = ERα (expressed in cells) (UniProt P03372); experiment: cell_activity; conditions: COS-1, E2; about 2-fold without ligand
[2] = COS-1, given as decreased about 60% of that observed with parent vector
[3] = COS-1 and CHO, no effect without ERE

Sequence of SID-CDC-SID (chain, as listed by the source): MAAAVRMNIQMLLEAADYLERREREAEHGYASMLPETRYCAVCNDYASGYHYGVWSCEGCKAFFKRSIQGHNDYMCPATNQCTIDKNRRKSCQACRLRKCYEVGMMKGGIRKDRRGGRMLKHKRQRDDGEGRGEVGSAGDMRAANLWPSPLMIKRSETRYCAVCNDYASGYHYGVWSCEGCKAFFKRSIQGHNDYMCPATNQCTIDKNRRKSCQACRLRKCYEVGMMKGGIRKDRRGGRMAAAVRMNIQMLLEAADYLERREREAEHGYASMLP

Q: What does the source list for cathepsin D promoter?
A: activity (SID-CDC; [2]): 60 % repression; activity (SID-CDC-SID): 60 % repression; activity (CDC-SID; [2]): 60 % repression

Q: Which results are given for “GGTCANNNTGACC (double strand) [SV40 enhancer/promoter with one consensus ERE]”?
A: activity (SID-CDC; [3]): 50 % repression; activity (KRAB-CDC): 50 % repression; activity (KRAB-CDC-SID): 95 % repression; activity (CDC-KRAB): 80 % repression; activity (CDC (expressed in cells)): 50 % repression; activity (SID-CDC-KRAB): 95 % repression; activity (CDC-SID; [3]): 80 % repression

Q: Which Kd (ERα (Homo sapiens)) does the source give for “GGTCANNNTGACC (double strand) [consensus ERE]” here?
A: Its Kd is 260 pM.

Q: What about the Kd [1] of the same substance?
A: The Kd was 1490 pM.

Q: How did the activity (ERα (expressed in cells)) turn out when complement C3 promoter was run?
A: Its activity is 11 fold.
